From the DeepSol protein solubility set

Assay: soluble on expression in E. coli; label from the status in PepcDB or PDB records
With “MAVSTVTGAAGIGLATLAADGSVLDTWFPAPELTESGTSATSRLAVSDVPVELAALIGRDDDRRTETIAVRTVIGSLDDVAADPYDAYLRLHLLSHRLVAPHGLNAGGLFGVLTNVVWTNHGPCAIDGFEAVRARLRRRGPVTVYGVDKFPRMVDYVVPTGVRIADADRVRLGAHLAPGTTVMHEGFVNYNAGTLGASMVEGRISAGVVVGDGSDVGGGASIMGTLSGGGTHVISIGKRCLLGANSGLGISLGDDCVVEAGLYVTAGTRVTMPDSNSVKARELSGSSNLLFRRNSVSGAVEVLARDGQGIALNEDLHANGVPRGLEHHHHHH” the “soluble on expression in E. coli” value was “soluble”. For “MAVTAQAARRKERVLCLFDVDGTLTPARQKIDPEVAAFLQKLRSRVQIGVVGGSDYCKIAEQLGDGDEVIEKFDYVFAENGTVQYKHGRLLSKQTIQNHLGEELLQDLINFCLSYMALLRLPKKRGTFIEFRNGMLNISPIGRSCTLEERIEFSELDKKEKIREKFVEALKTEFAGKGLRFSRGGMISFDVFPEGWDKRYCLDSLDQDSFDTIHFFGNETSPGGNDFEIFADPRTVGHSVVSPQDTVQRCREIFFPETAHEA”, the “soluble on expression in E. coli” value was “soluble”. With “MAYDIERYLDIRGAGDPTYGPTGELAFTLGTTGTAQVWALGAPGAWPTQLTFHDERVQWASFSPTREELAYGMDTGGDEFTQLHRVSGDGSEDVQLTAFPDAKHDWGGWSHDGDRIAYTANRRDASRFDVYVQGRDEAGANADCVRVGDTFDLPSVVGWSPSDDRLLVVDTHSNFDQDVAVLDVDTGEITRATAGLDADTRFSWVAWAPDGGGVYVTTDHDADTRYLGLLDPETGAISRVADGGDWPIEAVVTAHDAGRLAYVRNRDGYSELTIADAAGTTLTEQPTPELPDGVIRGLSWGPDGDTLAVVVSAATENPNVFVVDVATGAATQWTNAATAGIPKSTFREPELVRYETFDGREIPALFTRPDGDGPHPVIVDFHGGPEGQRRPSFLSLRQYFVDNGYAVFEPNVRGSSGYGATYMNLDNVRNRMDAVADGKAGVEWLTARTDIDADRVVAYGGSYGGFMVLASLTEYPELWAAGVDIVGIANFVTFLENTGDWRREHRESEYGSLDADREFLESISPTNNADRIRAPLLVLHGANDPRVPVGEAERIVEQASAHVPVEKHVFDDEGHGFSKRANKQAAYRAVVDFLDDHALEHHHHHH” the “soluble on expression in E. coli” value was “not soluble”. In the case of “MAYDIFLKIDGIDGESMDDKHKNEIEVLSWRWNIHQESTMHAGSGLGSGKVSVTNLDFDHYIDRASPNLFKYCASGKHIPQAILVMRKAGGNPLEYLKYTFTDLIVAVVSPSGSHDGEIASRETVELSFSTVKQEYVVQNQQGGSGGTITAGYDFKANKEI”, the “soluble on expression in E. coli” value is reported as “not soluble”. With “MAYPGHPGAGGGYYPGGYGGAPGGPAFPGQTQDPLYGYFAAVAGQDGQIDADELQRCLTQSGIAGGYKPFNLETCRLMVSMLDRDMSGTMGFNEFKELWAVLNGWRQHFISLDTDRSGTVDPQELQKALTTMGFRLSPQAVNSIAKRYSTNGKITFDDYIACCVKLRALTDSFRRRDTAQQGVVNFPYDDFIQCVMSV” the “soluble on expression in E. coli” value was “soluble”. In the case of “MCDCLSIILLVKMKKIYLKFVDFWDGFDTISNFIVDALSIQYEVVLSNEPDYLFYSCFGTSHLEYDCIKIMFIGENIVPDFNVCDYAIGFNYIDFGDRYLRLPLYAIYDGFSNLQNKKIDVNKALDRKFCSIVVSNNKWADPIRETFFKLLSSYKKVDSGGRAWNNIGGPVDNKLDFISQYKFNIAFENSRVLGYTTEKIMEPMQVNSIPVYWGNPLVGKDFNVDSFVNAHDFDSLERLVEYIIELDSSKDKYLEMLEKPWLLDKTYLDWKQLLLNFINNIMMKSYKDAKYLVNYGHAGKYRNEQRFWGRCERKFKLQRIIEYYSQLFDRKLEHHHHHH”, the “soluble on expression in E. coli” value is reported as “not soluble”. In the case of “MCDIGNLTQYRQAQEDILRGRVKVRVVGQDKGGGVVMGEGVEIAPGARIEGPVLIGGACHIATGAVVGPFTVLGPYTRVEEGATVRRSVLWDNVYTGEGANVRGLEHHHHHH”, the “soluble on expression in E. coli” value is reported as “not soluble”. For “MCECYQFYRMRITQSAQICLSVIKKSQKTGFGPNRLQRKGTHFVGTEPPVLKYHILQDKKPNEEYGLQGTNHELPGTGKVHSKLPTKVHMKKDKVYAWCSCGYSGSQPLCDGSHNSIRIPDLKLKPVRFIPDKDMTVWLCNCKQTNNRPFCDGSHKTVTDEDKKAGLFD”, the “soluble on expression in E. coli” value was “not soluble”. With “MCGIIGFMSRTGRLISGDRIATALNCLKERGNGEGSGYVGYGIYPDYKDDYAIHVFLDATKDYDRIRHEVEEVLVKYGYILKDEEIPTEEGIIKQEQVSWRFFYRFDEKYKTVEEDLMVDIVMDINAKIDGAFVFSSGKNMGVFKAAAWPLEVAEYFKIDQYKGFQWLSHARYPTNTKGWWGGAHPFNLLGWSVVHNGEITSYGANKRYVESFGYKCKLLTDTEVVAYLFDLLIRKHKIPVEYAMSALAPRFWDEIEIMSEEDKKIHEAIRMTYGGATMNGPFGIVVGTQEGMVFMNGEVEEGNTMVGLTDRIKLRPLVAAEKDDLLFVSSEESAIRKICPELDRVWMPDAGRMVIAKLEKKI” the “soluble on expression in E. coli” value was “not soluble”. For “MCGIVGANSTRNVTNILIEGLKKLEYRGYDSAGLAIIDDKNNIDICKEVGKVIELEKSVHNLANFKGDIGIAHTRWATHGKPSKNNSHPHASESFCIVHNGVIENFAELKKVLINDGYKFKSDTDTEVIAHLLQKEWRDNFSIVDNIKYIMAMLKGAYAVAIISQKFSDKIVAVRSGSPLVIGVGIDENFISSDALSLLPVTNKFSYLDEGDIAIISKDNVEVFDNNGAAKNLEVEEYNYSSSSASKDGYKHYMLKEIYEQPEAVSNTILASLADGEISLDSFDKRAKELFEKTKHICIVACGTSYNAGMTAKYWIEKYAKVPCSVEIASEIRYRDNVVVDGSLFVSISQSGETADTLESLRKSKKQNYVGSMCICNVPNSSLVRESDIAFMTKAGVEIGVASTKAFTTQLVALAIFTLVIAKLKNSLTDQQIAKYTEELKNIRALVMGALKLDTEIDQISEYFSDKEHTIFLGRGLYYPIAIEGALKLKEISYIHAEAYPSGELKHGPLALVDKNMPIVAVVPNDELLDKTLSNLQEVHARGGKLILFVDKAVKERVNFDNSIVLELDAGHDFSAPVVFTIPLQLLSYHVAIIKGTDVDQPRNLAKSVTVE”, the “soluble on expression in E. coli” value was “not soluble”. With “MCGRFVLFTTDESLLGHPALRIFHSIHAPKGMPPARYNIAPTTIIPILRVGTTPTEAVIEPARWGLIPAWKREVTLPPLFNARAETVTTKPSFRQAFSTQRCAIPMDGYYEWHNKKPYWITTGAPTWVAGLWDSGAGMLSATMITTDSVAPLDWLHHRMPRFLNNDELAVWLRGSADEASGLLTPGDASAFHTSLADPSVGNIRNDYPELIDAPTDLFSLLEHHHHHH” the “soluble on expression in E. coli” value was “soluble”. With “MCGVSLSVIIETLYFACRFRMVEKFLNQSVIWCRSGALRHCRTCGRGRAADTAFTLGDGSKRMGGCVQKEKNEAQKGEKGYRFRLFTGK” the “soluble on expression in E. coli” value was “not soluble”. For “MCLDVLIHYPQEKADEMISHLCSLAQSRIILSFAPKTCALTLLKKIGSFFPGPSKTTRAYLHREADVIKILESNGFAIQRKEFTKTRFYFSRILEATRSLEHHHHHH”, the “soluble on expression in E. coli” value was “not soluble”. In the case of “MCMEKFYKVGTIVNTQGLQGEVRVMPSTDFAQERFSKGSVLALFDDKDNYIQDLKVKSGRPQKNFYVVKFEGFYHINDVEKYKGYIVKIAEENQEDLDDGEFYYHEIIGSDVYENDILIGQISEILQPGANDVWVVKRKGKRDLLLPYIPPVILNVDVNQHRVDVSIMEGLDDLEHHHHHH”, the “soluble on expression in E. coli” value is reported as “soluble”. For “MCMHNSGFNLNLPPWVIASRHFNDNPHPLEVQGVRLANRFLFERLDAIASPDERGTVFNDYMSVKFQLHLWQEQATPSARKSLKNSYLRYLRGWMMDSNSVEGAVLKGWVESRMGIVPSFHKARITGIHTESYYGYVVDRTAGSKRTSAINSQLDILYEFCQYELARRFPGELWVTLYRGTFAADDYDVVEELGRREKIIRFNNLVSFTSHEERAWEFGSTVWEIRAPLSKVFFFDDLLPGSILKGEGEYLVIGGEYRVRRVMCTVLEHHHHHH”, the “soluble on expression in E. coli” value was “not soluble”. In the case of “MCMVMREYNKERLRKAIELWYREEGVRIIKDRVEHYLKFYPVKPRSIKVKEQKRRWGSCTYYNDLLFNWRCIMAPLKVVDYIVVHEMTHMVHKDHSKNYWNFVSKIIPNYKEQKMWLKENGIIMDIMAGDPLEHHHHHH”, the “soluble on expression in E. coli” value is reported as “soluble”. For “MCVSSAVCVLSRLSLERFSNFSANFVDNFLLVARFARGETLKNGIVLEISKICPKLYISPVPKLFDCSTDNLLFIYILFASKVRMKEMSTPTGLPALNGDVLSAINDMIGRVIIINTTDKKRYSGVLGAVSQDFDFGMQCVVEITKENENNLLRTESECRDKMVFHYSDIVDFAYVTQEIKKQHAVSKFVTDRQYHGDTPIEGEELQEWNGGEEDGLGGSIEDDVVVAGGQTAARRSNNHNNGTGWSVNDMFAANEKMNVVSTFKEDLTQYTTVEVVGTDEDRARAERLAREIESNSSSKFMANLENDDDERDLDKITRQEDFENGNGRKRNNNSFNQQQQQRRNPNIAPNGQPVNRRAEGLRGDRRNSGSSSANNSRYGAPAAAQQNYSQNQQQQQGQKGYRRQNEENDWQMAKGKGQNQGHDHSFRQQQKQMLDPRPNNNVKPADDKAQSATTATAAAGGSRVTDLKNWGNEFSIATAPKDQAPAVPAGNSGSAWNRGPPSSLVAKGSSNESTPPPTTNGEEAETKKEEAPSTSVDVAAAPVQNVQNDAEKHQEDDNVSVTSENDSVITSKSSSFKFNINAPEFKPRVAPATPTATTPVQNEYHPQQQPHPAMMAPQQGPPAPGMGMVPPHMGGPQNQGQPPMMMWQQTGQQQQGGGGYPQNHQFPIQHVPMQGVPGQMYGPGAATPVTVAQQPNQQHQVPTSAAGGQNHQLRDGEYREKQPLYMPYGPPQMVPVTSQQFYHSQYQGQMQQAAPYQMKMMPQQAPQGAYQQRYQQPQVYMMPPQGQQQQPRYQGPPPPQQQQQQQPQQQQFSGEQSRPQSHPNSQPTTPGPRGELPKMSGAPQNGNMQAESSSNASHSGSTSSQSGQRSGSPPGAVPPPPPPQQQHQQQQHPPHHAPPHVGAPPPQMMQQQQQHIQQYMQVFYPMIMPQQMPMQQNQHPQQSLMGERSDQGFPTSGYFDYRTMPNYQQQQQQQQQQMHRQNSLPQQFQGNQGVNPSGQQSGPPPPPPPSQQGTPRDQQHSQSPP”, the “soluble on expression in E. coli” value was “not soluble”. For “MCYHLIIDSFIDRISRMHTQRGLEVTTGSIEAVDSINYFHEQVLSSGQNAIQILDSAKKHTDNLLIQTYAAAFYLYAQEDVANEQASDYLQSAFRLLTSANEREKLIFEAVTNWSKRDYANAISLLVTLLERYPRDTLALKFMEWLFYCTGQAFNAEYFLKVCDKCAPENQDESHFLAIHSFALELCGQYSKAKEMAEEAITMNLLTPWAHHTLAHVHLLTSDITGGINRLRDLQKTWEDILPLLKGHNTWHLALFYLANRNEEEVKKLYPHISGALPDTVLEQLDTISLLWRMDMAGLPQDRLLNQVVDHLSTHPLEYYTGFTNAHFIYCLVKSGYKNEADESLKRMKFYACSPSSDALWGDVVLPLCQGIYAFADADYKTALMLMEPVIGECAQLGGSDAQIELFFQTYLLVLIHNKQKDKALQFFTEHLKYYNNTPLSDWWFQSANKA”, the “soluble on expression in E. coli” value was “not soluble”. With “MDAAKVRSEFDEKMMRYALELADKAEALGEIPVGAVLVDDARNIIGEGWNLSIVQSDPTAHAEIIALRNGAKNIQNYRLLNSTLYVTLEPCTMCAGAILHSRIKRLVFGASDYKTGAIGSRFHFFDDYKMNHTLEVTSGVLAEECSQKLSTFFQKRREEKKIEKALLKSLSDKLEHHHHHH” the “soluble on expression in E. coli” value was “not soluble”.
